{"source": "paper PMC6715622", "assay_in_all_cases": "EMSA", "key": {"[1]": {"tested_on": "RsmA1 (Pseudomonas syringae pv. tomato DC3000)"}, "[2]": {"tested_on": "RsmA2 (Pseudomonas syringae pv. tomato DC3000)"}, "[3]": {"tested_on": "RsmA3 (Pseudomonas syringae pv. tomato DC3000)"}, "[4]": {"tested_on": "RsmA4 (Pseudomonas syringae pv. tomato DC3000)"}}, "data": [{"substance": "rsmY", "values": [{"measurement": "binding signal", "setting": "[1]", "value": 320, "unit": "nM"}, {"measurement": "binding signal", "setting": "[2]", "value": 40, "unit": "nM"}, {"measurement": "binding signal", "setting": "[3]", "value": 40, "unit": "nM"}, {"measurement": "binding signal", "setting": "[4]", "value": 640, "unit": "nM"}]}, {"substance": "rsmX1", "values": [{"measurement": "binding signal", "setting": "[1]", "value": 320, "unit": "nM"}, {"measurement": "binding signal", "setting": "[2]", "value": 40, "unit": "nM"}, {"measurement": "binding signal", "setting": "[3]", "value": 40, "unit": "nM"}, {"measurement": "binding signal", "setting": "[4]", "value": 640, "unit": "nM"}]}, {"substance": "rsmZ", "values": [{"measurement": "binding signal", "setting": "[1]", "value": 320, "unit": "nM"}, {"measurement": "binding signal", "setting": "[2]", "value": 40, "unit": "nM"}, {"measurement": "binding signal", "setting": "[3]", "value": 40, "unit": "nM"}, {"measurement": "binding signal", "setting": "[4]", "value": 640, "unit": "nM"}]}, {"substance": "rsmX5", "values": [{"measurement": "binding signal", "setting": "[1]", "value": 320, "unit": "nM"}, {"measurement": "binding signal", "setting": "[2]", "value": 40, "unit": "nM"}, {"measurement": "binding signal", "setting": "[3]", "value": 40, "unit": "nM"}, {"measurement": "binding signal", "setting": "[4]", "value": 640, "unit": "nM"}]}]}
